Laboratory results: US6730296B1

Molecular target: fusin/CXCR4 receptor (human) (UniProt P61073)

In the case of “purified human SDF-1β chemokine, prepared in E. coli and containing an N-terminal methionine residue (from UniProt P48061) (ligand)”, the anti-fusin antibody staining of Jurkat cells after 3-hour incubation at 37 degrees C, Median Channel (Median Channel) is reported as 22.3.
